Positions of bridges follow the written chain, without caps; N, C: chain ends. No end group written: not given here. fluorescein = Fluorescein label on the N-terminus, attached via Aca

The source of these data is article PMC3310290 (2012).

The target in test [1] is T1, fibrinogen (Homo sapiens, UniProt P02671).
T1 chain 1: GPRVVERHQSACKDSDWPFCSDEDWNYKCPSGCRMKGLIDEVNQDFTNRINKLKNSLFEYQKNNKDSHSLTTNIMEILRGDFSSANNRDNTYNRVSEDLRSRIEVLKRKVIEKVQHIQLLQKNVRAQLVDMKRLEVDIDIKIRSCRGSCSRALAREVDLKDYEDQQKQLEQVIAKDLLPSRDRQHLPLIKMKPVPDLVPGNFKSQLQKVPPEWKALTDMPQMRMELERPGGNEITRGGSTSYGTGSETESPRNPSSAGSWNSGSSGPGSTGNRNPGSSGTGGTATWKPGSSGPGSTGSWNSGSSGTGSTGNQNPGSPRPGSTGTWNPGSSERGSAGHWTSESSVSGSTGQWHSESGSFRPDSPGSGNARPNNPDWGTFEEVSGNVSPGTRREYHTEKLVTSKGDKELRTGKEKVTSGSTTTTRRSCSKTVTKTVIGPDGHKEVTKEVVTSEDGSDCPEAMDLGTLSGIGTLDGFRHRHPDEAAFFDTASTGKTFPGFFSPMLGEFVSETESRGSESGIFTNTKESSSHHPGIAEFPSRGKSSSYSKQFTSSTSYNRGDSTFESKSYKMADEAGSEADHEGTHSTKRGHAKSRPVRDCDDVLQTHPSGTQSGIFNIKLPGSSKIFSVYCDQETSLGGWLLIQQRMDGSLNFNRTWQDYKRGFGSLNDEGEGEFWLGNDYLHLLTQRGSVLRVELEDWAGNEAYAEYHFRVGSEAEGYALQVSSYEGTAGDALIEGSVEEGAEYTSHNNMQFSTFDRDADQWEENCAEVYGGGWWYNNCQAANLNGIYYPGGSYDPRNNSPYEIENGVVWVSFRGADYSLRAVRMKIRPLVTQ
T1 chain 2: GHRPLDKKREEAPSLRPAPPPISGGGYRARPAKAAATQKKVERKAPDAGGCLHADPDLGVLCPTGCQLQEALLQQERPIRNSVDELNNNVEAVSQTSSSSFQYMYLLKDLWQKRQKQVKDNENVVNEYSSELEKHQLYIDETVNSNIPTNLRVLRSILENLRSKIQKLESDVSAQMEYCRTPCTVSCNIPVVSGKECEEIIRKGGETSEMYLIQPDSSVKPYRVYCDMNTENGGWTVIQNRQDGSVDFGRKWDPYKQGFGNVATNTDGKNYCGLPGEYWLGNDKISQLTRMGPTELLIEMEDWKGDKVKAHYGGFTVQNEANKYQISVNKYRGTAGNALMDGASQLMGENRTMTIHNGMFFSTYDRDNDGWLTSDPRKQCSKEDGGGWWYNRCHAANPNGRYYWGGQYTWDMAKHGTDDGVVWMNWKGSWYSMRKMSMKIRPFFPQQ
T1 chain 3: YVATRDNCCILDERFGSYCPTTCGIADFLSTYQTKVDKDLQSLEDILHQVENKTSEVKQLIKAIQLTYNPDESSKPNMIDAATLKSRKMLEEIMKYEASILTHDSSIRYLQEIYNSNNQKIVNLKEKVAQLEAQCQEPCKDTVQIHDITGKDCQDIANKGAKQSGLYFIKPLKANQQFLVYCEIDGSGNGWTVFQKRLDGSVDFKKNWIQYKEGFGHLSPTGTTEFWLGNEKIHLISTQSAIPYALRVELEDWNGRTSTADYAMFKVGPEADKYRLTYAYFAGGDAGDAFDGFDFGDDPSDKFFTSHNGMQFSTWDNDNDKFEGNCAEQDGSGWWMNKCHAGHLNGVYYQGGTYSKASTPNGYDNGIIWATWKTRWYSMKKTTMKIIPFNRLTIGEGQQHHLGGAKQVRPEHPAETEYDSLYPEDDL
Description: ITC. A general note: In ITC the heat of successive injections is recorded.

In test [2] the target is T1, fibrinogen. Description: fluorescence polarization.
Test [3] has as its target T2, DD(E) DD(E) (Homo sapiens, UniProt P02671).
T2 chain 1: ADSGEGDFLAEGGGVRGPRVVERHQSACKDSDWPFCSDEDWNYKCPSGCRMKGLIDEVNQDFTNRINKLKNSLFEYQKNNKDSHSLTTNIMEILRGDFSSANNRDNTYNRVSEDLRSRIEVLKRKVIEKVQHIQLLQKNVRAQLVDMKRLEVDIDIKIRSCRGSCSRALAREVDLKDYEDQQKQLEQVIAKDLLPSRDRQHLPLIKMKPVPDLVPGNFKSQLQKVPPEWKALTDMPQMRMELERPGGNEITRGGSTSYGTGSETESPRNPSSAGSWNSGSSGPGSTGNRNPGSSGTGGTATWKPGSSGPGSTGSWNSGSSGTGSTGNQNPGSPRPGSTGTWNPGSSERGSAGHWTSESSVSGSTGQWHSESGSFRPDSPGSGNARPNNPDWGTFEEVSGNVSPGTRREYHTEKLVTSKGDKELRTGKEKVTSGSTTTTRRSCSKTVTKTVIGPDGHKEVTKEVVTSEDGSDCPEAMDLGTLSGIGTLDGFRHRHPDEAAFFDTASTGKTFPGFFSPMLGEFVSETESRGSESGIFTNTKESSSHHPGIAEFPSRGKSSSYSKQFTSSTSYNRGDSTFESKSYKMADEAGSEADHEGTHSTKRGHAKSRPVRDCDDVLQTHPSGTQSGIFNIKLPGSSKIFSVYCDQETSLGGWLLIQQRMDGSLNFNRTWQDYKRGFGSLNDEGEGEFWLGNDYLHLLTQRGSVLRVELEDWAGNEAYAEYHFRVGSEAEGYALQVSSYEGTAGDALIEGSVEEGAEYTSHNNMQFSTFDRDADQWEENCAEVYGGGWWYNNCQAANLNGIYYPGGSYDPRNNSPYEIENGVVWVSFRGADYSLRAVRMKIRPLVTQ
T2 chain 2: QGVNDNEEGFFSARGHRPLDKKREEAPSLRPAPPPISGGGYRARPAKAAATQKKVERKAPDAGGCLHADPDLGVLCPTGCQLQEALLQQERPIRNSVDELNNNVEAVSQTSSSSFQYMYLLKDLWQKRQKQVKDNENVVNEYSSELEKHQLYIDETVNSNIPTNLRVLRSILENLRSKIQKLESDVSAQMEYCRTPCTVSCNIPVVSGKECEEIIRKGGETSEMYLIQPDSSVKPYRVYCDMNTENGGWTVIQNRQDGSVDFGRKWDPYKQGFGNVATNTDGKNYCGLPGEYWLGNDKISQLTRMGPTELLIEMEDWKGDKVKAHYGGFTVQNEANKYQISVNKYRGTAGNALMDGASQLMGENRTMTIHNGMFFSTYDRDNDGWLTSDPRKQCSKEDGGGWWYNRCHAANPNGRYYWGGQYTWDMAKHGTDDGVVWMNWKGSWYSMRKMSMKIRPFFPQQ
T2 chain 3: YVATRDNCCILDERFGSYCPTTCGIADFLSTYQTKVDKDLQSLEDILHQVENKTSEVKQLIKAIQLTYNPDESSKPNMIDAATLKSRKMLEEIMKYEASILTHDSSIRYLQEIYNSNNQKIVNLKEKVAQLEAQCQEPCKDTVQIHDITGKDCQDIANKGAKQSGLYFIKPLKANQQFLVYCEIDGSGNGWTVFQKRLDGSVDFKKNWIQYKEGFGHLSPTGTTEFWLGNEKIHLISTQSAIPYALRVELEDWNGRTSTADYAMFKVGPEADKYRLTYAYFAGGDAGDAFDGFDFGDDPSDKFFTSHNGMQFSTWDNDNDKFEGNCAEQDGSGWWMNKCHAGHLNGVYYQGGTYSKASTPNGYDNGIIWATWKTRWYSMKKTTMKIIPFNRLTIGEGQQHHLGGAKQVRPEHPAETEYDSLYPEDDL
Description: fluorescence polarization.

Another test has as its target T3, fibrin (Homo sapiens, UniProt P02671).
T3 chain 1: ADSGEGDFLAEGGGVR
T3 chain 2: QGVNDNEEGFFSAR
T3 chain 3: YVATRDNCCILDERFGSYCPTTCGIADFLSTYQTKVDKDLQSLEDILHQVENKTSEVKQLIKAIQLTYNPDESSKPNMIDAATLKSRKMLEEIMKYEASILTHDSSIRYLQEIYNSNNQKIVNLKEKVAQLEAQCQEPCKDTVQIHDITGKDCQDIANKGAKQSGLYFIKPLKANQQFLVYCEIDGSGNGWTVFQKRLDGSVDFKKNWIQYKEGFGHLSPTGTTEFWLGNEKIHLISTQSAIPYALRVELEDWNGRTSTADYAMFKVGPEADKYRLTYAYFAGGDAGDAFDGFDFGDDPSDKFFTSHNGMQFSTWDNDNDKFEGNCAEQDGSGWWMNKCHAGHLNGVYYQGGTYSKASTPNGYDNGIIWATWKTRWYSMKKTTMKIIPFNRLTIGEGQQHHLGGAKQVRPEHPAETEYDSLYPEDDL
Description: fibrin plate depletion assay.

In test [4] the target is T1, fibrinogen. Description: FP displacement.
Test [5] deals with T2, DD(E) DD(E). Description: FP displacement.

B1: Tn7-3 (peptide)
chain: LPCDYYGTCLD
On to B1, for which the Kd with fibrinogen [1] is > 20 µM.

B2: Tn6-2b-Fl (peptide)
chain: {fluorescein-Aca}-QWECPYGLCWIQ
modifications: cysteine pairing not given here
With B2, the Kd in the test with fibrinogen [2] was 22 µM; with DD(E) DD(E) [3], 0.057 µM.

B3: Tn6-2a (peptide)
chain: WECPYGLCWIQ
Regarding B3, the values for the dissociation constant Kd with fibrin and with fibrinogen [1] were 2.9 µM and > 50 µM, respectively.

B4: Tn6-1 (peptide)
chain: WFHCPYDLCHIL
On to B4, for which the Kd with fibrinogen [4] is > 200 µM.

B5: Tn7-3b-Gd (peptide)
chain: GLPCDYYGTCLD-NH2
modifications: disulfide 4-10; not fully specified (N-terminus); also: Gd(III) chelated by DTPA
In the case of B5, the Kd with fibrin came out at 8.4 µM.

B6: Tn7-3a-Gd (peptide)
chain: LPCDYYGTCLD-NH2
modifications: disulfide 3-9; not fully specified (N-terminus); also: Gd(III) chelated by DTPA
Molecule B6 yielded an inhibition constant Ki with DD(E) DD(E) [5] of 2.9 µM.

B7: Tn6-1-Gd (peptide)
chain: GGWFHCPYDLCHIL-NH2
modifications: disulfide 6-11; not fully specified (N-terminus); also: Gd(III) chelated by DTPA
Take B7: the Kd in the test with fibrin was 3.1 µM.

One may read the Kd as the constant that tells how readily two partners part at equilibrium. A low value points to tighter binding. For orientation: Ki means a measure of affinity in units of concentration, obtained from inhibition or displacement. Low readings indicate higher affinity, high ones lower affinity.
